{
  "source": "paper PMC12524584",
  "about": "“Structures, Interactions, and Antimicrobial Activity of the Shortest Thanatin Peptide from Anasa tristis” (International Journal of Molecular Sciences, 2025)",
  "target": "T1, LptAm of Klebsiella pneumoniae (truncated but functional variant of the LPS transport periplasmic protein … (Klebsiella pneumoniae, UniProt A0A377YZM8 28-159, 15N-labeled))",
  "T1 construct": "LptA, periplasmic LPS transport protein of Klebsiella pneumoniae, amino acids 28-159 (LptAm); synthetic gene in pET24a(+); also called 15N-LptAm; source: E. coli BL21, purified (Ni-NTA, size-exclusion chromatography), 15N-labeled in M9 minimal medium",
  "T1 sequence": "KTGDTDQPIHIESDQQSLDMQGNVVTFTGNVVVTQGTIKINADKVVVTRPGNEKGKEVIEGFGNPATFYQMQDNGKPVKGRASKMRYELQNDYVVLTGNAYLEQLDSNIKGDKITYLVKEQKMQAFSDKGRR",
  "assay": "NMR titration; 15N-1H HSQC of 15N-LptAm free and with Ana-thanatin at protein:peptide molar ratios 1:1 and 1:2; 298 K",
  "conditions": "both partners purified",
  "note": "Bridges are numbered along the chain shown (N, C = ends). Where no end group is shown, it is not given here.",
  "data": [
    {"binder": "VPIYYCNRKTGKCRRL (disulfide 6-13 (inferred), thanatin of the squash bug Anasa tristis, 16 residues, V1-L16; Single disulfide-bonded beta-hairpin peptide; the disulfide would join C6 and C13, the only two Cys; also called Anasa tristis thanatin; Ana-thanatin peptide; source: synthetic peptide (chemically synthesized by GenScript))", "note": "[Ana-thanatin (16-residue thanatin from Anasa tristis)]", "values": [
      {"measurement": "stoichiometry N", "result": 1}
    ]}
  ]
}
